The record followed here is article PMC10694592, “A conserved core region of the scaffold NEMO is essential for signal-induced conformational change and liquid-liquid phase separation” (The Journal of Biological Chemistry, 2023).

As usually defined, the Kd is a measure of binding affinity in units of concentration. Low readings indicate a tighter complex, high ones a looser complex.

The target of this assay is FITC-labeled 45-mer peptide derived from the C-terminal region of IKKβ (FITC label (position not given)). The experiment in a line: fluorescence polarisation; fluorescence anisotropy binding assay with an FITC-labeled 45-mer peptide of IKKβ and bacterially expressed full-length NEMO proteins; conditions not told here (refs 13, 26). To be noted: both partners purified. (Polarisation of emitted light reports the rotation of a fluorescent probe.)

B1: 7XAla-NEMO (aa 1-419), bacterially expressed (natural protein)
chain: MNRHLWKSQLAEMVQPSGGPAADQDVLGEESPLGKPAMLHLPSEQGAPETLQRALEENQELRDAIRQSNQILRERAEELLHFQASQREEKEFLMAKFQEARKLVERLGLEKLDLKRQKEQALREVEHLKRAQQQMAEDKASVKAQVTSLLGELQESQSRLEAATKEAQALEGRARAASEQARQLESEREALQQQHSVQVDQLRMQGQSVEAALRMERQAASEEKRKLAQLQVAYHQLFQEYDNHIKSSVVGSERKRGMQLEDLKQQLQQAEEALVAKQEVIDKLKEEAEQHKIVMETVPVLKAQADIYKADFQAERQAREKLAEKKELLQEQLEQLQREYSKLKASAQESARIEDMRKRHVEVSQAPLPPAPAYLSSPLALPSQRRSPPEEPPDFCCPKCQYQAPDMDTLQIHVMECIE
Molecule B1 yielded a Kd of 13 ± 2.9 nM.
